In publication PMC4005696, “Type III restriction endonucleases are heterotrimeric: comprising one helicase–nuclease subunit and a dimeric methyltransferase that binds only one specific DNA” (Nucleic Acids Research, 2014):

How the values were obtained:
[1] = target: PstII Mod subunit; test: SEC-MALS; 0.5–1.0 mg/ml (1.25–2.5 µM) enzyme, Superdex 200, Standard Assay Buffer minus BSA (50 mM Tris–HCl pH 8.0, 50 mM KCl, 10 mM MgCl2, 1 mM DTT), room temperature; enzyme alone or with excess Hex-labelled specific 50-mer DNA, with or without 1 mM ATP
[2] = target: PstII Res subunit; test: as above
[3] = target: EcoPI Res subunit (wild type, untagged) (Escherichia coli); test: as above
[4] = target: EcoPI Res subunit (wild type, untagged) (Escherichia coli); test: native MS; enzyme only, 10 µM, dialysed against 100 mM ammonium acetate pH 7.0; Q-TOF II modified for high-mass operation
[5] = target: the molecule itself; test: native MS; wt EcoP15I 5 µM with 10 µM 50-mer DNA (1:2), 2 mM magnesium acetate (4 mM MgOAc and 2 mM ATP where ATP was added), buffer-exchanged into 100 mM ammonium acetate; Synapt G2 HDMS
[6] = target: T1, EcoP15I Res subunit R534A (Escherichia coli, UniProt Q5ZND2 1-970, R534A); test: SEC-MALS; 0.5–1.0 mg/ml (1.25–2.5 µM) enzyme, Superdex 200, Standard Assay Buffer minus BSA (50 mM Tris–HCl pH 8.0, 50 mM KCl, 10 mM MgCl2, 1 mM DTT), room temperature; enzyme alone or with excess Hex-labelled specific 50-mer DNA, with or without 1 mM ATP; details: both partners purified
T1 construct: Res subunit of the Type III restriction endonuclease EcoP15I, Escherichia coli; mutated in Motif VI of the helicase, lacks ATPase activity; also called R534A EcoP15I; R534A P15I; source: purified identically to the wild-type (DEAE-Sepharose, heparin, Superdex 200), co-purified with Mod
T1 sequence (looked up): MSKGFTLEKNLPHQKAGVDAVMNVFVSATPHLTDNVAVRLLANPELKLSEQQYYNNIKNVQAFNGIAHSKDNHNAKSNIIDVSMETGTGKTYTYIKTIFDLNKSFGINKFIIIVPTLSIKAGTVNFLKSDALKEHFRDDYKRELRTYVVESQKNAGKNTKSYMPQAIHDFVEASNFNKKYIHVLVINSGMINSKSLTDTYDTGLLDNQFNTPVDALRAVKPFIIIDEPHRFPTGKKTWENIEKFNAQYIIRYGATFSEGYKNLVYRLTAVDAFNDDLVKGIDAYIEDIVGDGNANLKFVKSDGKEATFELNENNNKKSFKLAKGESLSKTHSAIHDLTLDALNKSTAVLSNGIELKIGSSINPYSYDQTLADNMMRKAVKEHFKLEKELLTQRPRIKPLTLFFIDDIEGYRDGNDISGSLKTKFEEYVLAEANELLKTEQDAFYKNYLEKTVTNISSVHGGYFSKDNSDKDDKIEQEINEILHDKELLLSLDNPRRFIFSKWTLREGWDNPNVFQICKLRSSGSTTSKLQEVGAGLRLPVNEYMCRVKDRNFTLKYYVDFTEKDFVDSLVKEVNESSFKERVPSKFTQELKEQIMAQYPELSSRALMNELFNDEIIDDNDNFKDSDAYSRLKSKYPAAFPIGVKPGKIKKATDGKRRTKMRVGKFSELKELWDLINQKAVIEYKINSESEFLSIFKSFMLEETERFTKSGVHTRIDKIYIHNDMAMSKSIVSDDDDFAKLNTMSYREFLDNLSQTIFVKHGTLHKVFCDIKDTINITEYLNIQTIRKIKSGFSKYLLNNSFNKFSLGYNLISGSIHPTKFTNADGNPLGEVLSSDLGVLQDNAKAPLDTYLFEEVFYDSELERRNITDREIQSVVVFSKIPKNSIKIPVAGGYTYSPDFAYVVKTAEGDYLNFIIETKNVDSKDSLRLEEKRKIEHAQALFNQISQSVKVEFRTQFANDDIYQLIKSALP

[7] = target: T2, EcoP15I Res subunit with C-terminal Avi-tag, biotinylated (Escherichia coli, UniProt Q5ZND2 1-970, biotin on the Avi-tag (co-expressed biotin ligase)); test: native MS; enzyme only, 10 µM, dialysed against 100 mM ammonium acetate pH 7.0; Q-TOF II modified for high-mass operation; details: both partners purified
T2 construct: Res subunit of the Type III restriction endonuclease EcoP15I, Escherichia coli; also called biotinylated EcoP15I; bio-EcoP15I; not shown: Avi-tag, C-terminal, kept
T2 sequence (looked up): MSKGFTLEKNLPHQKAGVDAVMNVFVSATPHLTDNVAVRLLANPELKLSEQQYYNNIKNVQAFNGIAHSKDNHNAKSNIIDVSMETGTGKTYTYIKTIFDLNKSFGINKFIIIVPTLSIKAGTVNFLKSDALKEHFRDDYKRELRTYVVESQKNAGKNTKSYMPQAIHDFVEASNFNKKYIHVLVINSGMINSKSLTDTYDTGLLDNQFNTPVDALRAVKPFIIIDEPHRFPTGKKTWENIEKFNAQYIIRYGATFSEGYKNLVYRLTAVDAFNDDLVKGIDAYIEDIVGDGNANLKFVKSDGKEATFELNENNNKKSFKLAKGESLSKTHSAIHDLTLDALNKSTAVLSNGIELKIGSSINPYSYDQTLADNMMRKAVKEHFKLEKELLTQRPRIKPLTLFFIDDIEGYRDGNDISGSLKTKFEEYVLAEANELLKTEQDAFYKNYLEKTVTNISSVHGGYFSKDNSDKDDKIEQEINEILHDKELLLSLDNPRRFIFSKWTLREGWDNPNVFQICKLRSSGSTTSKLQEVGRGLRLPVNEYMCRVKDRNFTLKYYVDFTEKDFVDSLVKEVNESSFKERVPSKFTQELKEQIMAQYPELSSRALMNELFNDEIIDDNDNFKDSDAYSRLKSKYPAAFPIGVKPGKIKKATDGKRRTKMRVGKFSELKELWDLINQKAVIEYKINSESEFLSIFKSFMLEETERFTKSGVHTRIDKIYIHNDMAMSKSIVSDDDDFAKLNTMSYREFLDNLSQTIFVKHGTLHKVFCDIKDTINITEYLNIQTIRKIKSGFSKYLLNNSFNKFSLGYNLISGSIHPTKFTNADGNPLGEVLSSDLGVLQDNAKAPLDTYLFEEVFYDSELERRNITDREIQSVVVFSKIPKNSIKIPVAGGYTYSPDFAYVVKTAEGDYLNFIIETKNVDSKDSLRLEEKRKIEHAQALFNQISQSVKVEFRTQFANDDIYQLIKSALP

[8] = target: T3, EcoP15I Res subunit (wild type, untagged) (Escherichia coli, UniProt Q5ZND2 1-970); test: as above; details: both partners purified
T3 construct: Res (restriction) subunit of the Type III restriction endonuclease EcoP15I, Escherichia coli; Made only together with Mod from the natural operon; also called wt EcoP15I
T3 sequence (looked up): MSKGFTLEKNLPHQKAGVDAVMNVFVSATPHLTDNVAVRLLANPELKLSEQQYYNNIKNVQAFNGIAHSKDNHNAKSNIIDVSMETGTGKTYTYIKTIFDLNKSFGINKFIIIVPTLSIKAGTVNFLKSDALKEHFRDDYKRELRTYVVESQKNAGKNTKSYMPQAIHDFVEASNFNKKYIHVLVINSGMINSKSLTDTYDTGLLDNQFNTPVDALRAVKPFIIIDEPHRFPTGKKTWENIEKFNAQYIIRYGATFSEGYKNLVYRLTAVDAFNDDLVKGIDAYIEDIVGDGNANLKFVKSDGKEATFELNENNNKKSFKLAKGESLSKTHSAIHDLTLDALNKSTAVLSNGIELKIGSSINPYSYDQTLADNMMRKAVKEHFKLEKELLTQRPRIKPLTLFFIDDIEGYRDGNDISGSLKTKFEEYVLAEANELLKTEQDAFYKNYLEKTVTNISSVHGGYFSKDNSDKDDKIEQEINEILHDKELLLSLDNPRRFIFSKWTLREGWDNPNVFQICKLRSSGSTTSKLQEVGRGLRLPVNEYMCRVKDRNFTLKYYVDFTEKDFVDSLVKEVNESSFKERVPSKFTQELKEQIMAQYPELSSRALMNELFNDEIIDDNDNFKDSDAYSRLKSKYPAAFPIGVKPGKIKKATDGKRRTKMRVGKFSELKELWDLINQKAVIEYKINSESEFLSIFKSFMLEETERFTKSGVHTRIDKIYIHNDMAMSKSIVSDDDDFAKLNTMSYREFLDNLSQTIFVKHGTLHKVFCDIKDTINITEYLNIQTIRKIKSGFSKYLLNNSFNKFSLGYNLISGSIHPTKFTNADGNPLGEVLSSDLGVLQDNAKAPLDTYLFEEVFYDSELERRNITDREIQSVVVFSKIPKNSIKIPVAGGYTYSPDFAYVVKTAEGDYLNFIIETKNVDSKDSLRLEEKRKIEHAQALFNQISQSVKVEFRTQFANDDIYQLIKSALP

**Q.** Which stoichiometry N [1] does the source give for PstII Mod subunit (enzyme) here?
**A.** 2

**Q.** And the stoichiometry N [2]?
**A.** 2 Mod per Res

**Q.** Which stoichiometry N [3] does the source give for EcoPI Mod subunit (untagged) (enzyme) here?
**A.** 2 Mod per Res

**Q.** And the stoichiometry N [4]?
**A.** 2 Mod per Res

B1: EcoP15I Mod subunit (untagged) (enzyme, Escherichia coli, UniProt P12364 1-644, looked up)
chain: MKKETIFSEVETANSKQLAVLKANFPQCFDKNGAFIQEKLLEIIRASEVELSKESYSLNWLGKSYARLLANLPPKTLLAEDKTHNQQEENKNSQHLLIKGDNLEVLKHMVNAYAEKVKMIYIDPPYNTGKDGFVYNDDRKFTPEQLSELAGIDLDEAKRILEFTTKGSSSHSAWLTFIYPRLYIARELMREDGTIFISIDHNEFSQLKLVCDEIFGEQNHVGDLVWKNATDNNPSNIAVEHEYIIVYTKNKEQLISEWKSNISDVKNLLVNIGEEFASKYTGNELQEKYTQWFREHRSELWPLDRYKYIDKDGIYTGSQSVHNPGKEGYRYDIIHPKTKKPCKQPLMGYRFPLDTMDRLLSEEKIIFGDDENKIIELKVYAKDYKQKLSSVIHLDGRVATNELKELFPEMTQPFTNAKTIKLVEDLISFACDGEGIVLDFFAGSGTTAHTVFNLNNKNKTSYQFITVQLDEPTKDKSDAMKHGYNTIFDLTKERLIRASKKNRDQGFKVYQLMPDFRAKDESELTLSNHTFFDDVVLTPEQYDTLLTTWCLYDGSLLTTPIEDVDLGGYKAHLCDGRLYLIAPNFTSEALKALLQKVDSDKDFAPNKVVFYGSNFESAKQMELNEALKSYANKKSIELDLVVRN
notes: Mod (modification) subunit of the Type III restriction endonuclease EcoP15I, Escherichia coli; also called Mod2 (as dimer); source: with biotinylated Res: avidin resin, Mono-Q
**Q.** With B1 as the molecule, how does the “stoichiometry N” value [5] read?
**A.** 2

**Q.** Does B1 bind [6]?
**A.** binds

**Q.** What about the “stoichiometry N” value [7] of the same molecule?
**A.** 2 Mod per Res

**Q.** And the “stoichiometry N” value [8]?
**A.** 2 Mod per Res
